Test results as given in US20190241648A1 (STATEN BIOTECHNOLOGY B V, published 2019).
Ends that are not written are not given here.

Columns and labels:
Experiment in all cases: peptide microarray
ApoC3 peptide … F64N = target: T1, ApoC3 peptide … F64N (human, not fully specified (bridges); also: cyclic constrained)
T1 peptide: DKFSENWDLDPEV
Procedure, shortened: (§1)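 ApoC3 peptide microarrays incubated with antibody samples and then stained with goat anti-human IgG (Fc) DyLight680 plus anti-HA DyLight800 control antibody. Scanned at intensity 7/7 (red/green); a secondary-only prestain checked for background, and framing HA peptides served as quality control.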

ApoC3 peptide … F64T = target: T2, ApoC3 peptide … F64T (human, not fully specified (bridges); also: cyclic constrained)
T2 peptide: DKFSETWDLDPEV
Procedure, shortened: as §1

ApoC3 peptide … W65Q = target: T3, ApoC3 peptide … W65Q (human, not fully specified (bridges); also: cyclic constrained, ring type and places not given here)
T3 peptide: DKFSEFQDLDPEV
Procedure, shortened: as §1

ApoC3 peptide … D59A = target: T4, ApoC3 peptide … D59A (human, cyclic constrained)
T4 peptide: AKFSEFWDLDPEV
Procedure, shortened: as §1

ApoC3 peptide … S62N = ApoC3 peptide … S62N (human, cyclic constrained)
Procedure, shortened: as §1

ApoC3 peptide … V71E = ApoC3 peptide … V71E (human, cyclic constrained)
Procedure, shortened: as §1

ApoC3 peptide … D59V = target: T5, ApoC3 peptide … D59V (human, not fully specified (bridges); also: cyclic constrained)
T5 peptide: VKFSEFWDLDPEV
Procedure, shortened: as §1

ApoC3 peptide … D66K = target: T6, ApoC3 peptide … D66K (human, not fully specified (bridges); also: cyclic constrained)
T6 peptide: DKFSEFWKLDPEV
Procedure, shortened: as §1

ApoC3 peptide … F64W = target: T7, ApoC3 peptide … F64W (human, not fully specified (bridges); also: cyclic constrained)
T7 peptide: DKFSEWWDLDPEV
Procedure, shortened: as §1

ApoC3 peptide … W65D = ApoC3 peptide … W65D (human, cyclic constrained)
Procedure, shortened: as §1

ApoC3 peptide … P69E = target: T8, ApoC3 peptide … P69E (human, not fully specified (bridges); also: cyclic constrained)
T8 peptide: DKFSEFWDLDEEV
Procedure, shortened: as §1

ApoC3 peptide … D68M = target: T9, ApoC3 peptide … D68M (human, cyclic constrained)
T9 peptide: DKFSEFWDLMPEV
Procedure, shortened: as §1

ApoC3 peptide … K60L = target: T10, ApoC3 peptide … K60L (human, not fully specified (bridges); also: cyclic constrained)
T10 peptide: DLFSEFWDLDPEV
Procedure, shortened: as §1

ApoC3 peptide … W65G = target: T11, ApoC3 peptide … W65G (human, not fully specified (bridges); also: cyclic constrained, ring type and places not given here)
T11 peptide: DKFSEFGDLDPEV
Procedure, shortened: as §1

ApoC3 peptide … D66H = target: T12, ApoC3 peptide … D66H (human, not fully specified (bridges); also: cyclic constrained)
T12 peptide: DKFSEFWHLDPEV
Procedure, shortened: as §1

ApoC3 peptide … D68V = ApoC3 peptide … D68V (human, cyclic constrained)
Procedure, shortened: as §1

ApoC3 peptide … L67F = target: T13, ApoC3 peptide … L67F (human, not fully specified (bridges); also: cyclic constrained)
T13 peptide: DKFSEFWDFDPEV
Procedure, shortened: as §1

ApoC3 peptide … D66A = target: T14, ApoC3 peptide … D66A (human, not fully specified (bridges); also: cyclic constrained)
T14 peptide: DKFSEFWALDPEV
Procedure, shortened: as §1

ApoC3 peptide … V71T = ApoC3 peptide … V71T (human, cyclic constrained)
Procedure, shortened: as §1

ApoC3 peptide … D68K = target: T15, ApoC3 peptide … D68K (human, cyclic constrained)
T15 peptide: DKFSEFWDLKPEV
Procedure, shortened: as §1

ApoC3 peptide … D59M = target: T16, ApoC3 peptide … D59M (human, cyclic constrained)
T16 peptide: MKFSEFWDLDPEV
Procedure, shortened: as §1

ApoC3 peptide … W65Y = target: T17, ApoC3 peptide … W65Y (human, not fully specified (bridges); also: cyclic constrained, ring type and places not given here)
T17 peptide: DKFSEFYDLDPEV
Procedure, shortened: as §1

ApoC3 peptide … E70L = target: T18, ApoC3 peptide … E70L (human, not fully specified (bridges); also: cyclic constrained)
T18 peptide: DKFSEFWDLDPLV
Procedure, shortened: as §1

ApoC3 peptide … E70S = target: T19, ApoC3 peptide … E70S (human, cyclic constrained)
T19 peptide: DKFSEFWDLDPSV
Procedure, shortened: as §1

ApoC3 peptide … S62K = ApoC3 peptide … S62K (human, cyclic constrained)
Procedure, shortened: as §1

ApoC3 peptide … V71Q = ApoC3 peptide … V71Q (human, cyclic constrained)
Procedure, shortened: as §1

ApoC3 peptide … K60C = target: T20, ApoC3 peptide … K60C (human, not fully specified (bridges); also: cyclic constrained)
T20 peptide: DCFSEFWDLDPEV
Procedure, shortened: as §1

ApoC3 peptide … V71R = ApoC3 peptide … V71R (human, cyclic constrained)
Procedure, shortened: as §1

ApoC3 peptide … D66P = target: T21, ApoC3 peptide … D66P (human, not fully specified (bridges); also: cyclic constrained)
T21 peptide: DKFSEFWPLDPEV
Procedure, shortened: as §1

ApoC3 peptide … K60S = target: T22, ApoC3 peptide … K60S (human, not fully specified (bridges); also: cyclic constrained)
T22 peptide: DSFSEFWDLDPEV
Procedure, shortened: as §1

ApoC3 peptide … S62I = ApoC3 peptide … S62I (human, cyclic constrained)
Procedure, shortened: as §1

ApoC3 peptide … E70D = ApoC3 peptide … E70D (human, cyclic constrained)
Procedure, shortened: as §1

ApoC3 peptide … D68Q = target: T23, ApoC3 peptide … D68Q (human, cyclic constrained)
T23 peptide: DKFSEFWDLQPEV
Procedure, shortened: as §1

ApoC3 peptide … E70V = target: T24, ApoC3 peptide … E70V (human, cyclic constrained)
T24 peptide: DKFSEFWDLDPVV
Procedure, shortened: as §1

ApoC3 peptide … F64I = target: T25, ApoC3 peptide … F64I (human, not fully specified (bridges); also: cyclic constrained)
T25 peptide: DKFSEIWDLDPEV
Procedure, shortened: as §1

ApoC3 peptide … V71A = ApoC3 peptide … V71A (human, cyclic constrained)
Procedure, shortened: as §1

ApoC3 peptide … F64E = target: T26, ApoC3 peptide … F64E (human, not fully specified (bridges); also: cyclic constrained)
T26 peptide: DKFSEEWDLDPEV
Procedure, shortened: as §1

B1: anti-ApoC3 antibody 6A6 (antibody, V domains shown)
VH: EVQLVESGGGLVQPGGSLRLSCAASGFTFSSYAGRWVRQVPGKGLEWVSSINAGGGSTSYADSVKGRFTISRDNAKNTLYLQMNSLKPEDTAKYYCTQNSYRYWGQGTRVAVSS
VL: DVVLTQTPGSLSVVPGESASISCKASQSLIHTDGKTYLYWLLQKPGQRPQLLIYQVSSHESGVPDRFTGSGSGTDFTLKISGVKAEDAGVYYCAQATYNPRTFGQGTKLEIK
notes: it was detected with goat anti-human IgG (Fc); also called mAb 6A6; llama antibody 6A6
% of binding to wild-type peptide (ApoC3 peptide … F64N): 153%
% of binding to wild-type peptide (ApoC3 peptide … F64T): 215%
% of binding to wild-type peptide (ApoC3 peptide … W65Q): 38.3%
% of binding to wild-type peptide (ApoC3 peptide … D59A): 86.4%
% of binding to wild-type peptide (ApoC3 peptide … S62N): 126%
% of binding to wild-type peptide (ApoC3 peptide … V71E): 228%
% of binding to wild-type peptide (ApoC3 peptide … D59V): 65.1%
% of binding to wild-type peptide (ApoC3 peptide … D66K): 0.33%
% of binding to wild-type peptide (ApoC3 peptide … F64W): 69.5%
% of binding to wild-type peptide (ApoC3 peptide … W65D): 130%
% of binding to wild-type peptide (ApoC3 peptide … P69E): 152%
% of binding to wild-type peptide (ApoC3 peptide … D68M): 0%
% of binding to wild-type peptide (ApoC3 peptide … K60L): 89.2%
% of binding to wild-type peptide (ApoC3 peptide … W65G): 49.5%
% of binding to wild-type peptide (ApoC3 peptide … D66H): 0%
% of binding to wild-type peptide (ApoC3 peptide … D68V): 0%
% of binding to wild-type peptide (ApoC3 peptide … L67F): 26.3%
% of binding to wild-type peptide (ApoC3 peptide … D66A): 0%
% of binding to wild-type peptide (ApoC3 peptide … V71T): 94.5%
% of binding to wild-type peptide (ApoC3 peptide … D68K): 0%
% of binding to wild-type peptide (ApoC3 peptide … D59M): 60.2%
% of binding to wild-type peptide (ApoC3 peptide … W65Y): 26.7%
% of binding to wild-type peptide (ApoC3 peptide … E70L): 1.22%
% of binding to wild-type peptide (ApoC3 peptide … E70S): 1.05%
% of binding to wild-type peptide (ApoC3 peptide … S62K): 11.1%
% of binding to wild-type peptide (ApoC3 peptide … V71Q): 81.4%
% of binding to wild-type peptide (ApoC3 peptide … K60C): 84%
% of binding to wild-type peptide (ApoC3 peptide … V71R): 47.5%
% of binding to wild-type peptide (ApoC3 peptide … D66P): 0%
% of binding to wild-type peptide (ApoC3 peptide … K60S): 156%
% of binding to wild-type peptide (ApoC3 peptide … S62I): 129%
% of binding to wild-type peptide (ApoC3 peptide … E70D): 13.8%
% of binding to wild-type peptide (ApoC3 peptide … D68Q): 0%
% of binding to wild-type peptide (ApoC3 peptide … E70V): 0.27%
% of binding to wild-type peptide (ApoC3 peptide … F64I): 100%
% of binding to wild-type peptide (ApoC3 peptide … V71A): 85.2%
% of binding to wild-type peptide (ApoC3 peptide … F64E): 236%
